Target: the molecule itself
Test: SEC-MALS

Protein | stoichiometry N
lac repressor (LacI), functional dimeric form (residues 1-331) (domain or fragment, E. coli, UniProt P03023 1-331, looked up) MKPVTLYDVAEYAGVSYQTVSRVVNQASHVSAKTREKVEAAMAELNYIPNRVAQQLAGKQSLLIGVATSSLALHAPSQIVAAIKSRADQLGASVVVSMVERSGVEACKAAVHNLLAQRVSGLIINYPLDDQDAIAVEAACTNVPALFLDVSDQTPINSIIFSHEDGTRLGVEHLVALGHQQIALLAGPLSSVSARLRLAGWHKYLTRNQIQPIAEREGDWSAMSGFQQTMQMLNEGIVPTAMLVANDQMALGAMRAITESGLRVGADISVVGYDDTEDSSCYIPPLTTIKQDFRLLGQTSVDRLLQLSQGQAVKGNQLLPVSLVKRKTTLA | 2
ribose repressor (RbsR) (natural protein, E. coli, UniProt P0ACQ0 1-330, looked up) MATMKDVARLAGVSTSTVSHVINKDRFVSEAITAKVEAAIKELNYAPSALARSLKLNQTHTIGMLITASTNPFYSELVRGVERSCFERGYSLVLCNTEGDEQRMNRNLETLMQKRVDGLLLLCTETHQPSREIMQRYPTVPTVMMDWAPFDGDSDLIQDNSLLGGDLATQYLIDKGHTRIACITGPLDKTPARLRLEGYRAAMKRAGLNIPDGYEVTGDFEFNGGFDAMRQLLSHPLRPQAVFTGNDAMAVGVYQALYQAELQVPQDIAVIGYDDIELASFMTPPLTTIHQPKDELGELAIDVLIHRITQPTLQQQRLQLTPILMERGSA | 2

Source: doi:10.1101/2025.04.02.646877 (bioRxiv, 2025)
